# Data: US12460006B2, “Antibodies against integrin alpha 11 beta 1” (Momenta Pharmaceuticals, Inc., priority 2019, dated 2025)
# B1: 6G4: rabbit anti-α11β1 mAb; heavy chain SEQ ID NO: 181, light chain SEQ ID NO: 182 (antibody)
# heavy: METGLRWLLLVAVLKGVQCQQQLEESGGGLVKPGGTLTLTCKASGVALNPYYYMCWVRQAPGKGLEWIACVDADSSGSTYYASWAKGRFTISKTSSTTVTLKMTSLTAADTATYFCARESVDYSSVGIGYVHGTDGLWGPGTLVTVSSGQPKAPSVFPLAPCCGDTPSSTVTLGCLVKGYLPEPVTVTWNSGTLTNGVRTFPSVRQSSGLYSLSSVVSVTSSSQPVTCNVAHPATNTKVDKTVAPSTCSKPMCPPPELPGGPSVFIFPPKPKDTLMISRTPEVTCVVVDVSQDDPEVQFTWYINNEQVRTARPPLREQQFNSTIRVVSTLPIAHQDWLRGKEFKCKVHNKALPAPIEKTISKARGQPLEPKVYTMGPPREELSSRSVSLTCMINGFYPSDISVEWEKNGKAEDNYKTTPTVLDSDGSYFLYSKLSVPTSEWQRGDVFTCSVMHEALHNHYTQKSISRSPGK
# light: MDTRAPTQLLGLLLLWLPGARCADIVVTQTPSSVSAAVGGTVTIKCQASQSISNYFSWYQQKPGQPPKLLIYRASTLASGVPSRFKGSGSGTEFTLTISDLECADAATYYCQCTYGRSNSNFFYGFGGGTEVVVKGDPVAPTVLIFPPAADQVATGTVTIVCVANKYFPDVTVTWEVDGTTQTTGIENSKTPQNSADCTYNLSSTLTLTSTQYNSHKEYTCKVTQGTTSVVQSFNRGDC
# B2: 4E1: rabbit anti-α11β1 mAb; heavy chain SEQ ID NO: 195, light chain SEQ ID NO: 196 (antibody)
# heavy: METGLRWLLLVAVLKGVQCQSLEESGGDLVKPGTSLTLSCTASGFSFGSYYYMCWVRQAPGKGLEWIACIDVGSSGDTYYASWVNGRFTISKTSSTTVTLQMTSLTAADTATYFCARDDTAAGGFGNLELWGPGTLVTVSSGQPKAPSVFPLAPCCGDTPSSTVTLGCLVKGYLPEPVTVTWNSGTLTNGVRTFPSVRQSSGLYSLSSVVSVTSSSQPVTCNVAHPATNTKVDKTVAPSTCSKPMCPPPELPGGPSVFIFPPKPKDTLMISRTPEVTCVVVDVSQDDPEVQFTWYINNEQVRTARPPLREQQFNSTIRVVSTLPIAHQDWLRGKEFKCKVHNKALPAPIEKTISKARGQPLEPKVYTMGPPREELSSRSVSLTCMINGFYPSDISVEWEKNGKAEDNYKTTPTVLDSDGSYFLYSKLSVPTSEWQRGDVFTCSVMHEALHNHYTQKSISRSPGK
# light: MDTRAPTQLLGLLLLWLPGARCAFELTQTPSSVSEPVGGTVTIKCQASQSIYSYFSWYQQKPGQPPKRLIYQASTLASGVPSRFKGSGSGTDFTLTISDLECADAATYYCQNNYGRGSGSYFFGFGGGTEVVVKGDPVAPTVLIFPPAADQVATGTVTIVCVANKYFPDVTVTWEVDGTTQTTGIENSKTPQNSADCTYNLSSTLTLTSTQYNSHKEYTCKVTQGTTSVVQSFNRGDC
# B3: 6F9: rabbit anti-α11β1 mAb; heavy chain SEQ ID NO: 183, light chain SEQ ID NO: 184 (antibody)
# heavy: METGLRWLLLVAVLKGVQCQSLEESGGDLVKPGASLTLTCTASGSSFSSTYWNCWVRQAPGKGLEWIACINAGSGTTYYASWAKGRFTVSKTSSTTVTLQMTSLTAADTATYFCTRDSDGRFSSGYYFNLWGPGTLVTVSSGQPKAPSVFPLAPCCGDTPSSTVTLGCLVKGYLPEPVTVTWNSGTLTNGVRTFPSVRQSSGLYSLSSVVSVTSSSQPVTCNVAHPATNTKVDKTVAPSTCSKPMCPPPELPGGPSVFIFPPKPKDTLMISRTPEVTCVVVDVSQDDPEVQFTWYINNEQVRTARPPLREQQFNSTIRVVSTLPIAHQDWLRGKEFKCKVHNKALPAPIEKTISKARGQPLEPKVYTMGPPREELSSRSVSLTCMINGFYPSDISVEWEKNGKAEDNYKTTPTVLDSDGSYFLYSKLSVPTSEWQRGDVFTCSVMHEALHNHYTQKSISRSPGK
# light: MDTRAPTQLLGLLLLWLPGATFAQVLTQTASPVSAAVGGTVTINCQSSQSVYDNNWLAWYQQKPGQPPKLLIDDASKLTSGVSSRFKGSGSGTQFTLTISGVQCDDAATYYCQGAYYSSGWYWAFGGGTEVVVKGDPVAPTVLIFPPAADQVATGTVTIVCVANKYFPDVTVTWEVDGTTQTTGIENSKTPQNSADCTYNLSSTLTLTSTQYNSHKEYTCKVTQGTTSVVQSFNRGDC
# Tested on: Human Pulmonary Fibroblasts
# Assay: Fibroblast-to-Myofibroblasts Transition (FMT), αSMA expression
# Type: cell-based
# Conditions: Yes/No
# Procedure: Human Pulmonary Fibroblasts (ScienCell) were cultured in complete Fibroblast Growth Medium (ScienCell) until 80% confluent. Cells were washed and harvested using Accutase. Cells were seeded onto tissue culture-treated 96 well plates at 20,000 cells/well in complete Fibroblast Growth Medium. After 24 hours, cells were washed and starved in serum reduced medium for an additional 24 hours. After starvation, cells were treated with TGFβ-1 (R&D Systems) with or without anti-α11 antibodies. A polyclonal rabbit anti-human α11 antibody was used as a positive control. Appropriate IgG isotype controls were also included. After 48 hours, cells were harvested, fixed, permeabilized and stained with AlexaFluor488 Labeled Anti-αSMA (α-smooth muscle actin) (Invitrogen). Cells were acquired on a FACS Verse (Benton Dickson) to determine expression levels of αSMA. Data were analyzed by gating on single cells and determining the geometric Mean Fluorescence Intensity (gMFI) in the FITC channel for each sample. gMFI for each sample was normalized to the untreated control and presented as % inhibition.
# In addition to the binding abilities described above, it is important for an anti-α11β1 antibody to inhibit the fibroblast-to-myofibroblast transition (FMT). It is now appreciated that myofibroblasts are a heterogeneous cell population, existing in different activation states, with the main function of producing and contracting collagen extracellular matrix (ECM). FMT is a multi-step event that is controlled by a changing mechanical environment in tissues undergoing repair. TGFβ is one of the potent factors that potentiates this process and alpha smooth muscle actin (αSMA) is one of the main markers that becomes overexpressed when fibroblasts are undergoing the transition to becoming myofibroblasts. The presence of αSMA enhances fibroblast contraction and guides myofibroblast activation through an intracellular feedback loop. Because αSMA is the main molecular marker of myofibroblasts, the ability of the novel anti-α11β1 mAbs to inhibit αSMA expression in TGFβ-induced FMT was tested.
row,Molecule,Inhibition of FMT
1,B1,No
2,B2,No
3,B3,No
